For the experiment, the target named is recombinant soluble full-length human TDP-43 (transactive response DNA binding protein-43) (Homo sapiens (Human)., UniProt Q13148). Nature of the experiment: SPR.
recombinant soluble full-length human TDP-43 (transactive response DNA binding protein-43), sequence (Q13148 whole entry): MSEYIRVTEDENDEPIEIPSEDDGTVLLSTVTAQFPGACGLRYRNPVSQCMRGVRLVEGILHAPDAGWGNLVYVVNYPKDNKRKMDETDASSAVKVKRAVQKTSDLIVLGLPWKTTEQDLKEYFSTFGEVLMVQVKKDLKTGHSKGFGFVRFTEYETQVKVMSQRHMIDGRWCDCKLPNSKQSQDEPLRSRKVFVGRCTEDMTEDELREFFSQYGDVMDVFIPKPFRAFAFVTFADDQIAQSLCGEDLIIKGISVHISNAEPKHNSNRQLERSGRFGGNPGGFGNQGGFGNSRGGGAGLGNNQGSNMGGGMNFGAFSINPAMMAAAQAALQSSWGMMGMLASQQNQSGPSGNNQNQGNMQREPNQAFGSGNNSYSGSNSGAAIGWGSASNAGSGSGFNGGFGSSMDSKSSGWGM

B1: ACI-5891 mouse IgG2a mAb produced with the bicistronic IRES-LC/HC expression cassette (antibody, V domains shown)
VH: EVQLQQSGPELVKPGASVKISCKTSGFTFTEYSMHWVKQSHGKSLEWIGGINPNNGGTSYNQKFKGKATLTVDKSSSTAYMELRSLTSEDSAVYYCARESWGQGTTLTVSS
VL: not shown
On to B1, for which the Kd was 0.09 nM.

B2: ACI-5891 human IgG1 chimeric mAb produced with the bicistronic IRES-LC/HC expression cassette (antibody, V domains shown)
VH: EVQLQQSGPELVKPGASVKISCKTSGFTFTEYSMHWVKQSHGKSLEWIGGINPNNGGTSYNQKFKGKATLTVDKSSSTAYMELRSLTSEDSAVYYCARESWGQGTTLTVSS
VL: not shown
As to B2, the Kd amounted to 0.092 nM.

B3: ACI-5891 human IgG1 chimeric reference mAb, conventionally produced (antibody, V domains shown)
VH: EVQLQQSGPELVKPGASVKISCKTSGFTFTEYSMHWVKQSHGKSLEWIGGINPNNGGTSYNQKFKGKATLTVDKSSSTAYMELRSLTSEDSAVYYCARESWGQGTTLTVSS
VL: not shown
For B3, the Kd amounted to 0.087 nM.

B4: anti-human TDP-43 mAb ACI-5891, mouse IgG2a, conventionally produced reference mAb (antibody, V domains shown)
VH: EVQLQQSGPELVKPGASVKISCKTSGFTFTEYSMHWVKQSHGKSLEWIGGINPNNGGTSYNQKFKGKATLTVDKSSSTAYMELRSLTSEDSAVYYCARESWGQGTTLTVSS
VL: not shown
With B4, the Kd worked out at 0.092 nM.

The values are drawn from publication PMC12432895 (Molecular Therapy, 2025).
